Reference: patent publication US20120148607A1 (ARGEN X N V, published 2012)

Molecular target: T1, recombinant dimeric c-Met (R&D systems, 358-MT/CF) (human, UniProt P08581 25-932)
T1 construct: Bought product; also called Fc-Met; recombinant c-Met
Assay: SPR, periplasmic Fab over Fc-Met (around 3000 RU) on CM5 chip
Protocol: The clones were then tested for their dissociation constants by Surface Plasmon Resonance. Around 3000 RU of Fc-Met was immobilized directly onto a CM5 chip to obtain a clear binding profile from the periplasmic extracts. Clones with an improved off-rate were sent for sequencing.

T1 sequence (P08581 25-932 limits assumed): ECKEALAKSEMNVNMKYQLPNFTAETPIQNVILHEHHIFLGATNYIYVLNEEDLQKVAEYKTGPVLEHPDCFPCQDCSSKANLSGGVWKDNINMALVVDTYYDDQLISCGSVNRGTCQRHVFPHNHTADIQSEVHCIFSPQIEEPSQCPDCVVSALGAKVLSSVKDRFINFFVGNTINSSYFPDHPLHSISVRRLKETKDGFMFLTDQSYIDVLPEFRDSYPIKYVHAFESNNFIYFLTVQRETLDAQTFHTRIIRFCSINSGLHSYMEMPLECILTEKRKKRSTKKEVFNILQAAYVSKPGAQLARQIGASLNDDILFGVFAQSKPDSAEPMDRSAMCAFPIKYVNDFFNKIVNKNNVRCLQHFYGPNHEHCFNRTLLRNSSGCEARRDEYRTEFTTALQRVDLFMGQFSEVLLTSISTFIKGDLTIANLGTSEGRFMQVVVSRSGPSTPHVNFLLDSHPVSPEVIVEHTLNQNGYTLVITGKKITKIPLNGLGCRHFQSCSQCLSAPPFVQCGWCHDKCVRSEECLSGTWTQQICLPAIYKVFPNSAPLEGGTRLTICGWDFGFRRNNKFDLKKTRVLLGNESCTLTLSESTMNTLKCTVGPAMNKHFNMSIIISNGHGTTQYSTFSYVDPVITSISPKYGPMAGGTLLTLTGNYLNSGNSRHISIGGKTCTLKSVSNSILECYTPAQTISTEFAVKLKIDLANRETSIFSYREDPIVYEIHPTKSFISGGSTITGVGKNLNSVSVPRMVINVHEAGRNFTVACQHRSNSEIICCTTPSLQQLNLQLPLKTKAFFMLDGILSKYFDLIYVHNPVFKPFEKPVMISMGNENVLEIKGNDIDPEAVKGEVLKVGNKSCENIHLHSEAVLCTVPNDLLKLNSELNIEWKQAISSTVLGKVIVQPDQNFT

| Binder | koff [s⁻¹] |
| --- | --- |
| 36C4Q Fab (Fab, V domains shown) VH: QVQLVESGPGLVKPSQTLSLTCAVSGGSITTNYYYWSWIRQSPGKGLEWMGVIAYDGSTDYSPSLKSRTSISRDTSKNQFSLQLSSVTPEDTAVYYCARDVRVIATGWATANALDAWGQGTQVTVSS VL: QSVLTQPPSVSGSPGKTVTISCAGTSSDVGYGNYVSWYQQLPGTAPKLLIFAVSYRASGIPDRFSGSKSGNTAFLTISGLQSEDEADYYCASYRSSNNAAVFGGGTHLTVL | 0.00017 |
| 49A1 VL shuffled Fab (Fab, V domains shown, VL-shuffled Fab with the 36C4Q heavy chain, periplasmic extract) VH: QVQLVESGPGLVKPSQTLSLTCAVSGGSITTNYYYWSWIRQSPGKGLEWMGVIAYDGSTDYSPSLKSRTSISRDTSKNQFSLQLSSVTPEDTAVYYCARDVRVIATGWATANALDAWGQGTQVTVSS VL: QSVLTQPPSVSGSPGKTVTISCAGTSSDVGYGNYVSWYQQLPGTAPKLLIFAVSYRASGIPDRFSGSKSGNTAFLTISGLQSEDEADYYCASYRSSNNAAVFGGGTHLTVL | 0.00017 |
| 49G3 VL shuffled Fab (Fab, V domains shown, VL-shuffled Fab with the 36C4Q heavy chain, periplasmic extract) VH: QVQLVESGPGLVKPSQTLSLTCAVSGGSITTNYYYWSWIRQSPGKGLEWMGVIAYDGSTDYSPSLKSRTSISRDTSKNQFSLQLSSVTPEDTAVYYCARDVRVIATGWATANALDAWGQGTQVTVSS VL: QSALTQPPSVSGTLGKTLTISCAGTSTDVGYGNYVSWYQQLPGTAPKLLIFAVSYRASGIPDRFSGSKSGNTAFLTISGLQSEDEADYYCASYRSSNNAAVFGGGTHLTVL | 0.00019 |
| 49E11 VL shuffled Fab (Fab, V domains shown, VL-shuffled Fab with the 36C4Q heavy chain, periplasmic extract) VH: QVQLVESGPGLVKPSQTLSLTCAVSGGSITTNYYYWSWIRQSPGKGLEWMGVIAYDGSTDYSPSLKSRTSISRDTSKNQFSLQLSSVTPEDTAVYYCARDVRVIATGWATANALDAWGQGTQVTVSS VL: QAVLTQPPSVSGTLGKTVTISCAGTSSDVGYGNYVSWYQKLPGTAPKLLIYAVSYRASGIPDRFSGSKSGNTASLTISGLQSEDEADYHCASYRTSNNVAVFGGGTKLTVL | 0.00063 |
| 49A11 VL shuffled Fab (Fab, V domains shown, VL-shuffled Fab with the 36C4Q heavy chain, periplasmic extract) VH: QVQLVESGPGLVKPSQTLSLTCAVSGGSITTNYYYWSWIRQSPGKGLEWMGVIAYDGSTDYSPSLKSRTSISRDTSKNQFSLQLSSVTPEDTAVYYCARDVRVIATGWATANALDAWGQGTQVTVSS VL: QSALTQPPSVSGSPGKTVTISCAGTSSDVGYGNYVSWYQKLPGTAPKLLIYAVSYRASGIPDRFSGSRSGNTASLTISGLQSEDEADYYCASYRITNRHSVFGGGTHLTVL | 0.00048 |
| 49C4 VL shuffled Fab (Fab, V domains shown, VL-shuffled Fab with the 36C4Q heavy chain, periplasmic extract) VH: QVQLVESGPGLVKPSQTLSLTCAVSGGSITTNYYYWSWIRQSPGKGLEWMGVIAYDGSTDYSPSLKSRTSISRDTSKNQFSLQLSSVTPEDTAVYYCARDVRVIATGWATANALDAWGQGTQVTVSS VL: QSALTQPPSVSGTLGKTVTISCAGTSSDVGYGNYVSWYQKLPGTAPKLLIYAVTYRASGIPDRFSGSKSGNTASLTISGLQSEDEADYYCASYRRSTNVGVFGGGTHLTVL | 0.00018 |
| 49D2 VL shuffled Fab (Fab, V domains shown, VL-shuffled Fab with the 36C4Q heavy chain, periplasmic extract) VH: QVQLVESGPGLVKPSQTLSLTCAVSGGSITTNYYYWSWIRQSPGKGLEWMGVIAYDGSTDYSPSLKSRTSISRDTSKNQFSLQLSSVTPEDTAVYYCARDVRVIATGWATANALDAWGQGTQVTVSS VL: QSVLTQPPSVSGTLGKTLTISCAGTSTDVGYGNYVSWYQQLPGTAPKLLIFAVSYRASGIPDRFSGSKSGNTAFLTISGLQSEDEADYYCASYRSSNNAAVFGGGTHLTVL | 0.00017 |
| 49D3 VL shuffled Fab (Fab, V domains shown, VL-shuffled Fab with the 36C4Q heavy chain, periplasmic extract) VH: QVQLVESGPGLVKPSQTLSLTCAVSGGSITTNYYYWSWIRQSPGKGLEWMGVIAYDGSTDYSPSLKSRTSISRDTSKNQFSLQLSSVTPEDTAVYYCARDVRVIATGWATANALDAWGQGTQVTVSS VL: LPVLTQPPSVSGTLGKTLTISCAGTSSDVGYGNYVSWYQQLPGTAPKLLIYAVSYRASGIPDRFSGSKSGNTASLSISGLQSEDEADYYCASYRSSNKNAVFGGGTHLTVL | 0.00082 |
| 48A1 VL shuffled Fab (Fab, V domains shown, VL-shuffled Fab with the 38H10 heavy chain, periplasmic extract; The printed 48A1 VK reads the same as the 38H10 VK) VH: EVQLVQPGVELRNPGASVKVSCKASGYIFTMNSIDWVRQAPGQGLEWMGRIDPEDGGTKYAQKFQGRVTFTADTSTSTAYVELNSLRSEDTAVYYCARVDDYYLGYDYWGQGTQVTVSS VL: EIVMTQSPSSVTASAGEKVTINCKSSQSVLWRSNQKNYLAWYQQRLGQSPRLLISWASIRESGVPDRFSGSGSTTDFTLTISSFQPEDAAVYYCQQGYSFPYTFGSGTRLEIK | 0.00081 |
| 48A11 VL shuffled Fab (Fab, V domains shown, VL-shuffled Fab with the 38H10 heavy chain, periplasmic extract) VH: EVQLVQPGVELRNPGASVKVSCKASGYIFTMNSIDWVRQAPGQGLEWMGRIDPEDGGTKYAQKFQGRVTFTADTSTSTAYVELNSLRSEDTAVYYCARVDDYYLGYDYWGQGTQVTVSS VL: DIVMTQTPSSVTAAVGEKVAINCKSSQSVLYNPNQKSYLAWYQQRPGQSPRLLIYWASTRESGVPDRFSGSGSTTDFALTISSFQPEDAAVYYCQQGYSFPYSFGSGTRLEIR | 0.00025 |
| 48E2 VL shuffled Fab (Fab, V domains shown, VL-shuffled Fab with the 38H10 heavy chain, periplasmic extract) VH: EVQLVQPGVELRNPGASVKVSCKASGYIFTMNSIDWVRQAPGQGLEWMGRIDPEDGGTKYAQKFQGRVTFTADTSTSTAYVELNSLRSEDTAVYYCARVDDYYLGYDYWGQGTQVTVSS VL: DVVMTQSPSSVTASAGEKVTINCKSSQSVLWSSNQKNYLAWYQQRVGQSPRLLIYWASTRESGVPDRFSGSGSTTDFTLTISNFQPEDAAVYYCQQGYSFPYSFGSGTRLEIR | 0.00029 |
| 48D7 VL shuffled Fab (Fab, V domains shown, VL-shuffled Fab with the 38H10 heavy chain, periplasmic extract) VH: EVQLVQPGVELRNPGASVKVSCKASGYIFTMNSIDWVRQAPGQGLEWMGRIDPEDGGTKYAQKFQGRVTFTADTSTSTAYVELNSLRSEDTAVYYCARVDDYYLGYDYWGQGTQVTVSS VL: DIVMTQTPASVTASAGEKVTINCKSSQSVLFSSNQKNYLAWYQQRVGQSPRLLIYWASTRESGVPDRFSGSGSTTDFTLTISNFQPEDAAVYYCQQGYSFPYSFGSGTRLEIR | 0.00025 |
| 48D2 VL shuffled Fab (Fab, V domains shown, VL-shuffled Fab with the 38H10 heavy chain, periplasmic extract) VH: EVQLVQPGVELRNPGASVKVSCKASGYIFTMNSIDWVRQAPGQGLEWMGRIDPEDGGTKYAQKFQGRVTFTADTSTSTAYVELNSLRSEDTAVYYCARVDDYYLGYDYWGQGTQVTVSS VL: DIVMTQTPSSVTASAGEKVTINCKSSQSVLYNSNQKNYLAWYQQRLGQSPRLLIYWASTRESGVPDRFSGSGSTTDFTLTISSFQPEDAAVYYCQQGWSFPYTFGSGTRLEIK | 0.00013 |
| 48C8 VL shuffled Fab (Fab, V domains shown, VL-shuffled Fab with the 38H10 heavy chain, periplasmic extract) VH: EVQLVQPGVELRNPGASVKVSCKASGYIFTMNSIDWVRQAPGQGLEWMGRIDPEDGGTKYAQKFQGRVTFTADTSTSTAYVELNSLRSEDTAVYYCARVDDYYLGYDYWGQGTQVTVSS VL: DIQLTQSPSSVTVSVGEKVTINCKSSQSVLYNSNQKNYLAWYQQRLGQSPRLLIYWASTRESGVPDRFSGSGSTTDFTLTISSFQPEDAAVYYCQQGWSFPYTFGSGTRLEIK | 0.00033 |
| 48B8 VL shuffled Fab (Fab, V domains shown, VL-shuffled Fab with the 38H10 heavy chain, periplasmic extract) VH: EVQLVQPGVELRNPGASVKVSCKASGYIFTMNSIDWVRQAPGQGLEWMGRIDPEDGGTKYAQKFQGRVTFTADTSTSTAYVELNSLRSEDTAVYYCARVDDYYLGYDYWGQGTQVTVSS VL: DVVMTQSPSSVTASVGEKVTINCKSSQSVLYTSNHKNYLAWYQQRLGQSPRLLIYWASTRESGVPDRFSGSGSTTDFTLTISSFQPEDAAVYYCQQGWSFPYSFGSGTRLEIK | 0.00033 |
| 48B6 VL shuffled Fab (Fab, V domains shown, VL-shuffled Fab with the 38H10 heavy chain, periplasmic extract) VH: EVQLVQPGVELRNPGASVKVSCKASGYIFTMNSIDWVRQAPGQGLEWMGRIDPEDGGTKYAQKFQGRVTFTADTSTSTAYVELNSLRSEDTAVYYCARVDDYYLGYDYWGQGTQVTVSS VL: DIQLTQSPSSVTASAGEKVTINCKSSQSVLYGSNQKNYLAWYQQRLGQSPRLLIYWASTRESGVPDRFSGSGSTTDFTLTISSFQPEDAAVYYCQQGWSFPYTFGSGTRLEIK | 0.00012 |
| 48E5 VL shuffled Fab (Fab, V domains shown, VL-shuffled Fab with the 38H10 heavy chain, periplasmic extract) VH: EVQLVQPGVELRNPGASVKVSCKASGYIFTMNSIDWVRQAPGQGLEWMGRIDPEDGGTKYAQKFQGRVTFTADTSTSTAYVELNSLRSEDTAVYYCARVDDYYLGYDYWGQGTQVTVSS VL: DIQMTQSPSSVTASAGEKVTINCKSSQSVLYNSNQKNYLAWYQQRLGQSPRLLIYWASTRESGVPDRFSGSGSTTDFTLTISSFQPEDAAVYYCQQGWSFPYTFGSGTRLEIK | 0.00019 |

Molecular target: T1, recombinant dimeric c-Met (R&D systems, …)
Assay: SPR, Fab-containing periplasmic extract over immobilised c-Met, dissociation 2 min
Protocol: HGF-competing clones were sequenced in the VH and the VL regions and divided into VH families based on the sequence of the CDR3 in the VH. These VH families were further tested with Surface Plasmon Resonance (SPR) for dissociation (koff) and recognition of SEMA-PSI or the extracellular domain of c-Met (Decoy). Between 1000-2000 RU of dimeric c-Met, SEMA-PSI or Decoy c-Met was immobilised on a VIA chip with amine coupling in sodium acetate buffer (pH 4.5). The Fab-containing peris were added with a flow rate of 30 μl/min and Fabs were considered to be binding if an increase of the RU was observed. The koff was measured for 2 minutes for each sample.

| Binder | koff [s⁻¹] |
| --- | --- |
| 12G4 Fab (Fab, V domains shown, Fab from the phage display library, tested as periplasmic extract) VH: QLQLVESGGGMAQPGGSLKLSCAASGFTFDDYAMTWVRQAPGKGLEWLSTISWNDINTYYAESMKDRFTISRDNAKNTLYLQMNSLESEDTAVYYCAKRRDNYYGTSGEYDYWGQGTQVTVSS VL: QSALTQPPSVSGTLGKTVTISCAGTSSDIGNYNYVSWYQQLPGTAPKLLIYEVNKRPSGIPDRFSGSKSGNTASLSISGLQSEDEADYYCASYRSSNNVVFGGGTKLTVL | 0.00013 |
| 13E6 Fab (Fab, V domains shown, Fab from the phage display library, tested as periplasmic extract) VH: QVQLQESGGDLVQPGGSLRLSCAASGFTFDDYVMNWVRQAPGKGLEWISAINWNGGSTYYAESMKGRFTISRDNAKNTLYLQMYSLQSDDTAVYYCVKDTVVSGNGYWGQGTQVTVSS VL: QSVLTQPPSVSGTLGKTVTISCAGTSSDIGDYNYVSWYQQLPGTAPKLLIYDVNKRASGIPDRFSGSKSGNTASLSISGLQSEDEADYYCASYRSRNDYAFGGGTKLTVL | 0.00065 |
| 20F1 Fab (Fab, V domains shown, Fab from the phage display library, tested as periplasmic extract) VH: EVQVQESGPGLVKPSQTLSLTCTVSGGSMTGNYYAWSWIRQPPGKGLEWMGVIAYDGSTYYSPSLKSRTSISRDTSKNQFSLQLSSVSPEDTAVYYCARGPGWYSGSRNDYWGQGTQVTVSS VL: QSALTQPPSVSGSPGKTVTISCTGTNSDVGYGNYVSWYQQLPGMAPKLLIYDVNRRASGIADRFSGSKSGNTASLTISGLQSEDEGDYHCASYRSANNAVFGGGTHLFVL | 0.0069 |
